Earlier results in patent US20250341526A1, “NOVEL DYES” (Quantum-Si Incorporated, priority 2024, published 2025).

Test system: amino acid at a terminal position of a polypeptide
Details: Table 1, ClpS proteins; amino acid at terminal position; inferred from literature and/or demonstrated by the inventors; cited from earlier work

| Molecule | Binding Pref. |
| --- | --- |
| PS558: ClpS amino acid recognition protein, SEQ ID NO: 72 (protein, listed as Planctomycetia bacterium) MTATTADPDRTTAEKTTKKARRSGQPKRQPRYHVILWNDNDHTYQYVVAMLQQLFGHPATTGLKLATEVDRTGRAVILTTTREHAELKRDQIHAFGADRLLARSKGAMSASIEPEAE | I, L, V |
| PS563: ClpS amino acid recognition protein, SEQ ID NO: 77 (protein, listed as Acidobacteria bacterium) MSSRSATAYPEVEDDTSDQLQPLYHVILLNDEDHTYDYVIEMLQKIFGFPESKAFSHAVEVDTKGTTILLTCDLEQAERKRDLIHSYGPDWRLPRSLGSMAAVVEPAAG | I, L, V |
| PS564: ClpS amino acid recognition protein, SEQ ID NO: 78 (protein, listed as Planctomycetes bacterium) MFEEVVSVAVAEPKTKKQSRTKPKRQPPYHVILWDDTDHTFDYVIKMMGELFRMPREKGYQLAKEVDTSGRAICMTTTLELAELKRDQIHAFGRDDASAHCKGSMSATIEPAEG | I, L, V |
| PS566: ClpS amino acid recognition protein, SEQ ID NO: 80 (protein, listed as Planctomycetaceae bacterium) MSSPSSLDDVQVSTSRAKPANETRTRKQPPYAVIVENDDHHTFLYVIEALMKVCGHAPEKGFVLAQQIHTQGKAMVWSGTLELAELKRDQLRGFGPDNYAPRPVTFPLGVTIEPLP | I, L, V |
| PS560: ClpS amino acid recognition protein, SEQ ID NO: 74 (protein, listed as Planctomycetes bacterium) MTETITTPAERTQTQAEPRSDRAWLWNVVLLDDDEHTYEYVIRMLHTLFGMPVERAFRLAEEVDARGRAVVLTTHKEHAELKRDQVHAFGKDALIASCAGSMSAVLEPAECGSDDED | I, L, V |
| PS546: ClpS amino acid recognition protein, SEQ ID NO: 60 (protein, listed as Planctomycetia bacterium) MSDTITLPGRPEVERDERTRRQPPYNVILHNDDDHTFEYVIVMLNQLFGYPPEKGYEMAKEVHLNGRVIVLTTSKEHAELKRDQIHAFGPDPFSSKDCKGSMSASIEPAY | I, L, V |
| PS559: ClpS amino acid recognition protein, SEQ ID NO: 73 (protein, listed as Planctomycetaceae bacterium) MNQAAISPNPDIKPNPSTHKKRASQRQPRYHVILWNDNDHTYHYVVTMLQKLFGHPPRTGIKMATEVDKKGKVIVLTTSREHAELKRDQIHAFGADKLIRRSKGAMAASIEPES | I, L, V |
| PS550: ClpS amino acid recognition protein, SEQ ID NO: 64 (protein, listed as Planctomycetes bacterium) MPTFTEPEVVNDTRILPPYHVILLNDDDHTYEYVIHMLQTLFGHPQERGFQLAVEVDKKGKAIVFTTSKEHAEFKRDQIHAFGADPLSSKNCKGSMSAVIEPSF | I, L, V |
| PS552: ClpS amino acid recognition protein, SEQ ID NO: 66 (protein, Fimbriiglobus ruber) MSKTSTLPEVESESAQKLKYQPPYHVILLNDDDHSYVYVITMLKELFGHPEQKGYQLADAVDKQGRAIVFTTTREHAELKQEQIHAYGPDPTIPRCKGAMTAVIEPAE | I, L, V |
| PS561: ClpS amino acid recognition protein, SEQ ID NO: 75 (protein, listed as Roseimaritima sp.) MAELQTAVVEPTTRPEQDEKQSQSRPKRQPRYNVILWDDPDHSYDYVIMMLKELFGHPRQRGHQMAEEVDTTGRVICLTTTMEHAELKRDQIHAYGSDEGITRCKGSMSASIEPVPE | I, L, V |
| PS548: ClpS amino acid recognition protein, SEQ ID NO: 62 (protein, listed as Gemmataceae bacterium) MSDTITLPEEKTDVRTKRQPPYHVILLNDDDHTYQYVIYMLQTLFGHPPETGFKMAQEVDKTGRVIVDTTSLERAELKRDQIHAFGPDPYIERCKGSMSAMIEPSE | I, L, V |
| PS374: ClpS amino acid recognition protein, SEQ ID NO: 7 (protein) MRWEDPLAAEPVTPGVAPVVEEETDAAVETPWRVILYDDDIHTFEEVILQLMKATGCTPEQGERHAWTVHTRGKDCVYQGDFFDCFRVQGVLREIQLVTEIEG | F, Y, W, L |
| PS557: ClpS amino acid recognition protein, SEQ ID NO: 71 (protein, listed as Planctomycetia bacterium) MPTAASATESAIEDTPAPARPEVDGRTKPKRQPRYHVVLWNDDDHTYQYVVVMLQSLFGHPPERGYRLAKEVDTQGRVIVLTTTREHAELKRDQIHAFGYDRLLARSKGSMKASIEAEE | I, L, V |
| PS547: ClpS amino acid recognition protein, SEQ ID NO: 61 (protein, listed as Gemmataceae bacterium) MGFPTDFRQSIEISTPLGSQQPRFSNASSEPALADPVLVINPRIQPRYHVILLNDDDHTYRYVIEMMLIVFGHPPEKGFLIAKEVDKAGRAICLTTSLEHAEFKQEQVHAYGADPYFGPKCKGSMTAVLEPAE | I, L, V |
| PS553: ClpS amino acid recognition protein, SEQ ID NO: 67 (protein, listed as Planctomycetes bacterium) MPASASAVTEPPVSLPEAAAPRPKDRPKRQPRYHVILWNDDDHTYQYVVAMLRQLFGHPPEKGFTLAKQVDKDGRVVVLTTTKEHAELKRDQIHAFGADRLLARSKGSMSASIEPEASTG | I, L, V |
| PS565: ClpS amino acid recognition protein, SEQ ID NO: 79 (protein, listed as Aquisphaera sp.) MSEFDHEHSGDTSVADPIVTTKTAPKPQKHAENETETRRQPPYNVIILNDEEHTFDYVIELLCKVFRHSLATAQELTWRIHLTGRAVVLTTHKELAELKRDQVLAYGPDPRMSVSKGPLDCFIEPAPGG | I, L, V |
| PS551: ClpS amino acid recognition protein, SEQ ID NO: 65 (protein, listed as Rubrobacter indicoceani) MPSAAPAKPKTKRQSRTQGMPPYNVVLLDDDDHTYGYVIEMLNKVFGHPPEKGFELATEVDKNGRVIVMTTNLEVAELKRDEVHAFGPDPLMPRSKGSMSAVVERAG | I, L, V |
| PS545: ClpS amino acid recognition protein, SEQ ID NO: 59 (protein, listed as Planctomycetales bacterium) MSEPMTLPAIPQPRLKERTQRQPPYNVILLNDDDHSYEYVIAMLQVLFGYPREKGYQMAKEVDSTGRVILLTTTREHAELKQEQIHAFGPDPLMARCQGSMTAVIEPAV | I, L, V |
| PS562: ClpS amino acid recognition protein, SEQ ID NO: 76 (protein, listed as Rubripirellula amarantea) MSDQQSMVAEPEVVVHTQDEKKLEKQNKRKKQPRYNVVLWDDTDHSYDYVVLMMKQLFHHPIETGFQIAKQVDKGGKAICLTTTMEHAELKRDQIHAFGKDDLIARCTGSMSATIEPVPE | I, L, V |
| PS567: ClpS amino acid recognition protein, SEQ ID NO: 81 (protein, listed as Planctomycetaceae bacterium) MADYEDAGEDALEDDFDHGTVTVAPQKPEPKKQSENKRQANRQPRYNVLLWDSEDHTFEYVEKMLRELFGHIKKQCQIIAEQVDQEGRAVVLTTTLEHAELKRDQIHAYGKDQLEGSKGSMWSTIEAVD | I, L, V |
| PS435: ClpS amino acid recognition protein, SEQ ID NO: 58 (protein) MTLSVALGPDTQESTQTGTAVSTDTLTAPDIPWNLVIWNDPVNLMSYVSYVFQSYFGYSETKANKLMMEVHKKGRSIVAHGSKEQVEQHAVAMHGYGLWATVEKATGGNSGGGKSGGPGKGKGKRG | F, Y, W, L |
| PS554: ClpS amino acid recognition protein, SEQ ID NO: 68 (protein, listed as Planctomycetia bacterium) MSDSASATVEVQADPPADATARSQPTPARSTGSKPKRQPRYHVVLWNDDDHTYEYVIAMLRRLFGIEPEKGFRIAEEVDQSGRAVVLTTTREHAELKRDQIHAFGADRLLARSKGSMSASIEPEA | I, L, V |
| PS555: ClpS amino acid recognition protein, SEQ ID NO: 69 (protein, listed as Planctomycetes bacterium) MADSAQTGVAEPIQETLRRRKLRDDRRPKRQPPYHVILWNDNDHTYAYVVVMLMQLFGYPAEKGYQLASEVDTQGRAVVLTTTKEHAELKRDQIHAYGKDGLIEKCKGSMWATIEPAPGE | I, L, V |
| PS556: ClpS amino acid recognition protein, SEQ ID NO: 70 (protein, listed as Blastopirellula marina) MGDSNTSVAEPGEVTVVTTKPAPKKAKPKRQPKYHVVLWNDDDHTYEYVILMMHELFGHPVEKGFQIAKTVDADGRAICLTTTKEHAELKRDQIHAYGKDELIARCRGSMSSTIEPEC | I, L, V |
| PS549: ClpS amino acid recognition protein, SEQ ID NO: 63 (protein, listed as Planctomycetes bacterium) MSESITTLPKKSRRLKEEEEQKTKRQPPYNVILLNDDDHTFEYVIFMLQKLFGHPPERGMQMAKEVHTTGRVIVMTTALELAELKRDQIHAFGPDPLIDRCKGSMSATIEPAPI | I, L, V |
